{
  "source": "paper PMC4081100",
  "about": "“A DNA-binding-site landscape and regulatory network analysis for NAC transcription factors in Arabidopsis thaliana”",
  "binders": {"B1": {"name": "MYB90Synth (Synthetic promoter) (dsDNA)", "DNA 1": "GATCAGGTTCAGCTAAGTAACCGATCCAGG", "DNA 2": "GATCCCTGGATCGGTTACTTAGCTGAACCT"}, "B2": {"name": "PalNACBS (dsDNA)", "DNA 1": "CAGTCTTGCGTGTTGGAACACGCAACAGTC", "DNA 2": "GACTGTTGCGTGTTCCAACACGCAAGACTG"}, "B3": {"name": "MYB90 WT promoter (dsDNA)", "DNA 1": "B1 DNA 1 with A16C, A19C", "DNA 2": "B1 DNA 2 with T16G, T19G"}},
  "key": {"[1]": {"target": "GST-NTL6(1-168) (Arabidopsis thaliana, UniProt Q9SCK6 1-168)", "sequence (Q9SCK6 1-168)": "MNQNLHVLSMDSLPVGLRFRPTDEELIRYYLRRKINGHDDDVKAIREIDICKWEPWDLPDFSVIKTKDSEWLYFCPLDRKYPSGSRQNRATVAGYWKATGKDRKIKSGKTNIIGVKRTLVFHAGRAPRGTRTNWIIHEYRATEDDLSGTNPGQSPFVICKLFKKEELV", "assay": "EMSA; EMSA with 75 pM 32P-labelled DNA, binding buffer as in cited refs 7 and 36; oligos annealed in 20 mM Tris-HCl pH 8.0, 20 mM MgCl2", "settings": "protein: recombinant; tags: GST; chain copies: 2; label: 32P; 5' overhangs 4 nt (GATC) on both strands"}, "[2]": {"target": "T1, GST-ANAC092(1-176) (Arabidopsis thaliana, UniProt Q9FKA0 1-176)", "T1 sequence": "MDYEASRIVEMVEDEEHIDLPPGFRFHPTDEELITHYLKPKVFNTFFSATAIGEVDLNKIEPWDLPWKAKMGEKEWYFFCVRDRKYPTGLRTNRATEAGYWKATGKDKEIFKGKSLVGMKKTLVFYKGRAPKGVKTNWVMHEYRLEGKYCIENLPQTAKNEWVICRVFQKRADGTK", "assay": "EMSA; EMSA with 75 pM 32P-labelled DNA, binding buffer as in cited refs 7 and 36; oligos annealed in 20 mM Tris-HCl pH 8.0, 20 mM MgCl2", "settings": "protein: recombinant, tags: GST, chain copies: 2, label: 32P"}},
  "note": "Changes are numbered by the printed parent chain.",
  "data": [
    {"binder": "B1", "values": [
      {"measurement": "binding result", "setting": "[1]", "value": "binds"}
    ]},
    {"binder": "B2", "values": [
      {"measurement": "binding result", "setting": "[2]; blunt", "value": "binds"}
    ]},
    {"binder": "B3", "values": [
      {"measurement": "binding result", "setting": "[1]", "value": "no binding"},
      {"measurement": "binding result", "setting": "[2]; 5' overhangs 4 nt (GATC) on both strands", "value": "binds"}
    ]}
  ]
}
